{"source": "patent US20210101998A1", "about": "(Pfizer, published 2021)", "binders": {"B1": {"name": "hz4F36 (antibody, human IgG4 S228P, kappa, V domains shown)", "VH": "EVQLVESGGGLVKPGGSLRLSCAASGFTFSNYAMSWVRQTPEKRLEWVATISRSGSYSYFPDSVQGRFTISRDNAKNSLYLQMNSLRAEDTAVYYCARLGGYDEGDAMDSWGQGTTVTVSS", "VL": "DIVMTQTPLSLSVTPGQPASISCKSSQSLLESDGKTYLNWYLQKPGQSPQLLIYLVSILDSGVPDRFSGSGSGTDFTLKISRVEAEDVGVYYCLQATHFPQTFGGGTKVEIKR", "notes": "also called Novo2021; Anti-TFPI-4F36"}, "B2": {"name": "TFPI-118 (antibody, human IgG1, lambda, V domains shown)", "VH": "EVQLVESGGGLVQPGRSLRLSCAVSGLTIDNYAMQWVRQAPGKGLEWVSGISGNSRSIGYADSVKGRFTISRDNAKNSLYLQMNSLRAEDTALYYCAIFLHESDYWGQGTLVTVSS", "VL": "QSVLTQPPSASGTPGQRVTISCSGSTSNIGTMYVHWYQQLPGTAPKLLIYRNNHRPSGVPDRFSGSKSGTSASLAISGLRSEDEADYYCLAWDDTLRAYVFGTGTKVTVLG", "notes": "Germlined variant of TFPI-24: VL of TFPI-113 paired with VH of TFPI-108"}, "B3": {"name": "4D8.b1 (antibody, mouse IgG1, kappa)", "light": "DIVMTQSHKFMSTSVGDRVSITCKASQDVHTAVAWYQQKPGQSPRLLIYWASTRHTGVPDRFTGCGSGTDYTLTISSVQAEDLALYYCQQHYTTPYTFGGGTKLEMKADAAPTVSIFPPSSEQLTSGGASVVCFLNNFYPKDINVKWKIDGSERQNGVLNSWTDQDSKDSTYSMSSTLTLTKDEYERHNSYTCEATHKTSTSPIVKSFNRNEC", "heavy": "EVLLQQSGPELVKPGASVKIPCKASGYTFTDYNLDWVKQSHGKSLEWIGDINPINGATLYNQKFKGKATLTVDQSSSTAYMELRSLTSEDTAVYYCSIYYGDYDAMDYWGQGASVTVSSAKTTPPSVYPLAPGSAAQTNSMVTLGCLVKGYFPEPVTVTWNSGSLSSGVHTFPAVLQSDLYTLSSSVTVPSSTWPSETVTCNVAHPASSTKVDKKIVPRDCGCKPCICTVPEVSSVFIFPPKPKDVLTITLTPKVTCVVVDISKDDPEVQFSWFVDDVEVHTAQTQPREEQFNSTFRSVSELPIMHQDWLNGKEFKCRVNSAAFPAPIEKTISKTKGRPKAPQVYTIPPPKEQMAKDKVSLTCMITDFFPEDITVEWQWNGQPAENYKNTQPIMDTDGSYFVYSKLNVQKSNWEAGNTFTCSVLHEGLHNHHTEKSLSHSPGK", "notes": "Mouse monoclonal antibody purified from a hybridoma subclone; also called mouse 4d8.b1; TFPI 4D8"}}, "key": {"humTFPI K1K2 [1]": {"target": "T1, humTFPI K1K2 (human)", "T1 construct": "Biotinylated on the AviTag for ELISA; also called Human TFPIα K1K2; humTFPI K1K2-aviHis10", "assay": "SPR, summary table", "method": "(§1) The flow cells were activated by injecting a 1:1 mixture of 400 mM 1-Ethyl-3-(3-dimethylaminopropyl) carbodiimide hydrochloride (EDC) and N-hydroxysuccinimide (NHS) for 7 minutes at a flow rate of 10 μl/minute. Anti-human IgG antibody was diluted to 25 μg/ml in 10 mM Sodium Acetate pH 5.0 and injected over all flow cells for 7 minutes at 10 ul/minute. All flow cells were blocked with 1 M Ethanolamine-HCL (ETH) for 7 minutes at 10 μl/minute. Final immobilization level of the capture antibody was approximately 10,000 resonance units (RU). The running buffer for immobilization and kinetics was 10 mM HEPES pH 7.4, 150 mM NaCl, 3 mM EDTA, 0.05% (v/v) Tween-20 (HBS-EP+). […] Flow cell 1 was used as a reference surface. […] At the end of each cycle, the entire anti-IgG surface was regenerated by a 60 second pulse of 3 M MgCl2. Kinetic assays were conducted at 25° C. at a collection rate of 10 Hz on a BIAcore T200 instrument (GE Healthcare). Rate constants and affinities were determined by fitting the data to a 1:1 model in BIAcore T200 Evaluation software version 1.0 (GE)."}, "murTFPI K1K2": {"target": "T2, murTFPI K1K2 (mouse)", "T2 construct": "also called Mouse TFPI K1K2; mouse TFPI", "T2 chain": "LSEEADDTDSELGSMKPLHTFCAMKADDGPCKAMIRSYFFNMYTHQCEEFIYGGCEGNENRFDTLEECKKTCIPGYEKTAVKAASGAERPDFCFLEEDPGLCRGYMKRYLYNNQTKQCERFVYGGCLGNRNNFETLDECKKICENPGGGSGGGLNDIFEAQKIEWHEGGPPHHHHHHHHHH", "assay": "SPR, summary table", "method": "as §1"}, "cynTFPI K1K2 [2]": {"target": "T3, cynTFPI K1K2 (cynomolgus monkey)", "T3 construct": "also called Cynomolgus Monkey TFPI K1K2; cyno TFPI K1K2", "assay": "SPR, summary table", "method": "as §1"}, "rabTFPI K1K2 [3]": {"target": "T4, rabTFPI K1K2 (rabbit, limits assumed)", "T4 construct": "also called Rabbit TFPI K1K2; rabbit TFPI", "T4 chain": "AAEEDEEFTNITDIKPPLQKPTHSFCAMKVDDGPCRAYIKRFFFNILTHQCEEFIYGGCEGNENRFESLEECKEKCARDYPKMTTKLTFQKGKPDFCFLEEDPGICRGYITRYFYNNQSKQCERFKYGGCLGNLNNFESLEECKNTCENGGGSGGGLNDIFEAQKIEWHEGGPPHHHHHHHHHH", "assay": "SPR, summary table", "method": "as §1"}, "humTFPI K1K2 [4]": {"target": "T1, humTFPI K1K2", "assay": "cell-based or functional assay"}, "humTFPI K1K2 [5]": {"target": "T1, humTFPI K1K2", "assay": "SPR, antibody ligand, TFPI analyte;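 as to result: surface plasmon resonance on a BIAcore T200 at 25 °C, test antibody captured on immobilized anti-human IgG, TFPI K1K2 flowed as analyte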", "method": "as §1"}, "cynTFPI K1K2 [6]": {"target": "T3, cynTFPI K1K2", "assay": "SPR, antibody ligand, TFPI analyte", "method": "as §1"}, "rabTFPI K1K2 [7]": {"target": "T4, rabTFPI K1K2", "assay": "SPR, antibody ligand, TFPI analyte", "method": "as §1"}, "ratTFPI K1K2 [8]": {"target": "T5, ratTFPI K1K2 (rat)", "T5 chain": "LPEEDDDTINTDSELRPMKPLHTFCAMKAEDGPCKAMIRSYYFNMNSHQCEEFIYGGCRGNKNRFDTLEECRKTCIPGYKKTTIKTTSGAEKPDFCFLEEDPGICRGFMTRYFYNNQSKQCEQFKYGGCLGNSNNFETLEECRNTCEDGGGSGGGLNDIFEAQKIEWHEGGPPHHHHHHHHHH", "assay": "SPR, antibody ligand, TFPI analyte", "method": "as §1"}, "ratTFPI K1K2 [9]": {"target": "T5, ratTFPI K1K2", "assay": "SPR, summary table", "method": "as §1"}, "humTFPI K1K2 [10]": {"target": "T1, humTFPI K1K2", "assay": "cell-based or functional assay", "remark": "listed apart in the source"}, "humTFPI K1K2 [11]": {"target": "T1, humTFPI K1K2", "assay": "cell-based or functional assay", "remark": "listed apart in the source"}, "humTFPI K1K2 [12]": {"target": "T1, humTFPI K1K2", "assay": "SPR, antibody ligand, TFPI analyte", "remark": "listed apart in the source"}, "rabTFPI K1K2 [13]": {"target": "T4, rabTFPI K1K2", "assay": "SPR, antibody ligand, TFPI analyte"}, "humTFPI K1K2 [14]": {"target": "T1, humTFPI K1K2", "assay": "ELISA, biotinylated TFPI on streptavidin plate", "method": "(§2) Purified anti-TFPI antibodies were diluted to 1 ug/ml in ELISA assay buffer, then serially diluted three-fold to generate an eight-point dilution series. The diluted antibodies were added at a volume of 100 uL per well. The plates were incubated at room temperature for 2 hours. After washing the plates with PBS/0.05% Tween 20, the plates were incubated with a goat anti-mouse IgG-Fc polyclonal antibody conjugated with horseradish peroxidase (Pierce) at 1:10,000 dilution. After 1 hour of incubation, bound antibody was detected with the addition of a TMB substrate solution. Absorbances were read a 450 nm, and the data were analyzed by GraphPad Prism software."}, "rabTFPI K1K2 [15]": {"target": "T4, rabTFPI K1K2", "assay": "ELISA, biotinylated TFPI on streptavidin plate", "method": "as §2"}}, "note": "Where two headings read alike, the source gives them in different places.", "data": [{"binder": "B1", "values": [{"measurement": "Kd", "setting": "humTFPI K1K2 [1]", "value": 0.493, "unit": "nM"}, {"measurement": "binding result", "setting": "murTFPI K1K2", "value": "no binding"}, {"measurement": "Kd", "setting": "cynTFPI K1K2 [2]", "value": 0.425, "unit": "nM"}, {"measurement": "Kd", "setting": "rabTFPI K1K2 [3]", "value": 1.81, "unit": "nM"}, {"measurement": "FVIIa/TF/Xa EC50", "setting": "humTFPI K1K2 [4]", "value": 1.85, "unit": "nM"}, {"measurement": "Xa Inhibition Assay EC50", "setting": "humTFPI K1K2 [4]", "value": 6.57, "unit": "nM"}, {"measurement": "Kd", "setting": "humTFPI K1K2 [5]", "value": 0.49, "unit": "nM"}, {"measurement": "koff", "setting": "humTFPI K1K2 [5]", "value": 0.00093, "unit": "s⁻¹"}, {"measurement": "kon", "setting": "humTFPI K1K2 [5]", "value": "1.89e+06", "unit": "M⁻¹ s⁻¹"}, {"measurement": "Kd", "setting": "cynTFPI K1K2 [6]", "value": 0.425, "unit": "nM"}, {"measurement": "koff", "setting": "cynTFPI K1K2 [6]", "value": 0.00288, "unit": "s⁻¹"}, {"measurement": "kon", "setting": "cynTFPI K1K2 [6]", "value": "6.86e+06", "unit": "M⁻¹ s⁻¹"}, {"measurement": "Kd", "setting": "rabTFPI K1K2 [7]", "value": 1.81, "unit": "nM"}, {"measurement": "koff", "setting": "rabTFPI K1K2 [7]", "value": 0.0076, "unit": "s⁻¹"}, {"measurement": "kon", "setting": "rabTFPI K1K2 [7]", "value": "4.2e+06", "unit": "M⁻¹ s⁻¹"}, {"measurement": "binding result", "setting": "ratTFPI K1K2 [8]", "value": "no binding"}]}, {"binder": "B2", "values": [{"measurement": "Kd", "setting": "rabTFPI K1K2 [3]", "value": 5.79, "unit": "nM"}, {"measurement": "Kd", "setting": "ratTFPI K1K2 [9]", "value": 3.65, "unit": "nM"}, {"measurement": "FVIIa/TF/Xa EC50", "setting": "humTFPI K1K2 [4]", "value": 4.03, "unit": "nM"}, {"measurement": "Xa Inhibition Assay EC50", "setting": "humTFPI K1K2 [4]", "value": 20.8, "unit": "nM"}, {"measurement": "Kd", "setting": "rabTFPI K1K2 [7]", "value": 5.79, "unit": "nM"}, {"measurement": "Kd", "setting": "ratTFPI K1K2 [8]", "value": 3.65, "unit": "nM"}]}, {"binder": "B3", "values": [{"measurement": "FXa EC50", "setting": "humTFPI K1K2 [10]", "value": 5.9, "unit": "nM"}, {"measurement": "FXa-FVIIa EC50", "setting": "humTFPI K1K2 [10]", "value": 6.67, "unit": "nM"}, {"measurement": "FXa EC50", "setting": "humTFPI K1K2 [11]", "value": 4.15, "unit": "nM"}, {"measurement": "FXa-FVIIa EC50", "setting": "humTFPI K1K2 [11]", "value": 3.5, "unit": "nM"}, {"measurement": "Kd", "setting": "humTFPI K1K2 [12]", "value": 1.19, "unit": "nM"}, {"measurement": "koff", "setting": "humTFPI K1K2 [12]", "value": 0.00114, "unit": "s⁻¹"}, {"measurement": "kon", "setting": "humTFPI K1K2 [12]", "value": 958000, "unit": "M⁻¹ s⁻¹"}, {"measurement": "Kd", "setting": "rabTFPI K1K2 [13]", "value": 0.63, "unit": "nM"}, {"measurement": "koff", "setting": "rabTFPI K1K2 [13]", "value": 0.00126, "unit": "s⁻¹"}, {"measurement": "kon", "setting": "rabTFPI K1K2 [13]", "value": "2.01e+06", "unit": "M⁻¹ s⁻¹"}, {"measurement": "EC50", "setting": "humTFPI K1K2 [14]", "value": 0.0959, "unit": "nM"}, {"measurement": "EC50", "setting": "rabTFPI K1K2 [15]", "value": 0.0976, "unit": "nM"}]}]}
